This is an account of results in patent publication US20150031617A1, “USE OF THYMOSIN ALPHA FOR TREATMENT OF PURULENT RHINOSINUSITIS” (SCICLONE PHARMACEUTICALS, INC., priority 2012, published 2015).

Data set [1] has as its system monocytes and granulocytes of patients with purulent rhinosinusitis. Nature of the data set: monocyte and granulocyte polarization in vitro in patients with purulent rhinosinusitis. The class given is cell-based, human. To be noted: 10 patients; thymalfasin, 0.1 mg/ml; FIG. 1. On the procedure:
The results in 10 patients were evaluated. The monocyte and granulocyte polarizations in 10 patients were evaluated. Initially, 3 to 4 of the patients started with decreased polarization. […] (See, FIG. 1.) As a control, N-formylmethionyl-leucyl-phenylalanine (fMLP)-induced polarization of healthy donor monocytes. (See, FIG. 2.) Concentrations were TP-1, 1 mg/ml, thymalfasin, 0.1 mg/ml and fMLP, 10^−8M.

The conditions of data set [2]: cited from earlier work.

Take “(N-acetyl)-Ser-Asp-Ala-Ala-Val-Asp-Thr-Ser-Ser-Glu-Ile-Thr-Thr-Lys-Asp-Leu-Lys-Glu-Lys-Lys-Glu-Val-Val-Glu-Glu-Ala-Glu-Asn-OH (Ac-SDAAVDTSSEITTKDLKEKKEVVEEAEN-OH) [TA1]”: the “monocyte and granulocyte polarization in vitro” value in data set [1] was “worked excellently in improving and restoring the polarization in vitro”. For the same substance, the Peak plasma levels entry in data set [2] (after injection of 3.2 mg of TA1 (about 40 μg/kg)) is on record as “approximately 100 ng/ml”. The “TA1 circulating in serum” value in data set [2] (circulating serum level) was 0.1 to 1.0 ng/mL. For the same substance, the “half-life in the circulation” value in data set [2] (in the circulation) is “about 2 hours”.
